Measurements as given in patent US20240100176A1 (Eli Lilly, published 2024).
Substitutions are numbered along the chain they refer to.

T1: human IL-4Rα on cells (human PBMC B cells and CD4+ T cells, Daudi cells, HEK-Blue IL-4/IL-13 cells, myeloid … (human, UniProt P24394 26-825))
T1 sequence: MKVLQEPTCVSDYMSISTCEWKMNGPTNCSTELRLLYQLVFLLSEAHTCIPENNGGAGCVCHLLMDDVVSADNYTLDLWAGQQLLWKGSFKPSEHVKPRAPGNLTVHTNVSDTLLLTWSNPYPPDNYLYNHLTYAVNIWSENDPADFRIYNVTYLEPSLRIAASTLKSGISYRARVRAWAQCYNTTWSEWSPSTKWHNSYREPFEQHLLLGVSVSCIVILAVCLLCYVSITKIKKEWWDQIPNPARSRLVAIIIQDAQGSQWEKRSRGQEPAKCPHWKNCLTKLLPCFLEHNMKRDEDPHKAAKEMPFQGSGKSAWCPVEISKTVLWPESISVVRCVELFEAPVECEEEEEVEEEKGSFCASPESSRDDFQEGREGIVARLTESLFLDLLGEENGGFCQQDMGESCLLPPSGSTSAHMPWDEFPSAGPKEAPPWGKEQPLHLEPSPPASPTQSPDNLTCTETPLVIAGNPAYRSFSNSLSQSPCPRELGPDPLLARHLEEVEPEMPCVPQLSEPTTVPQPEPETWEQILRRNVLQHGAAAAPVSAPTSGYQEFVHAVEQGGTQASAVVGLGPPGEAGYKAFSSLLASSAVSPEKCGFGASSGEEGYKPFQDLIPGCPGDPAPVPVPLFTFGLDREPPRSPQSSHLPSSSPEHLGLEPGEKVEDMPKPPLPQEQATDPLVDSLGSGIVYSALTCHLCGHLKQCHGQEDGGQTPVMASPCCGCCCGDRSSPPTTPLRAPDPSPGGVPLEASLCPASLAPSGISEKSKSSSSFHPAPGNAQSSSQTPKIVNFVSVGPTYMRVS

T2: hexahistidine-tagged cynomolgus monkey IL-4Rα extracellular domain (cynomolgus monkey, UniProt P24394 26-231 (human entry))
T2 construct: also called cynomolgus monkey IL-4Rα ECD; not shown: hexahistidine tag
T2 chain: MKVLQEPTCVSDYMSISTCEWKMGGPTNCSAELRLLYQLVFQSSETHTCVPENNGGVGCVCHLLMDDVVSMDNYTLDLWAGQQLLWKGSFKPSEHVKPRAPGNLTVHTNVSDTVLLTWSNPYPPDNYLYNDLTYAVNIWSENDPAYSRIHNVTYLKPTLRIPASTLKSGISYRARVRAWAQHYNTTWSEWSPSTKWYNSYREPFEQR

T3: hexahistidine-tagged human IL-4Rα extracellular domain (human, UniProt P24394 26-232)
T3 construct: In the MSD assay the plate coat is the His-tagged ECD; also called human IL-4Rα ECD; Wild type receptor; not shown: hexahistidine tag
T3 sequence: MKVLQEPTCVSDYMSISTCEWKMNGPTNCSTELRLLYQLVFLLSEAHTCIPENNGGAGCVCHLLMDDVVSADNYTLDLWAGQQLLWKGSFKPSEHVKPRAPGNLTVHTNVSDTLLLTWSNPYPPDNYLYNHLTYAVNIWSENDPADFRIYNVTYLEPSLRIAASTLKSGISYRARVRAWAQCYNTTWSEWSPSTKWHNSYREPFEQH

B1: anti-human IL-4Rα antibody Ab9 (antibody, human IgG4 S228P, kappa, V domains shown)
VH: QVQLVESGGGLVQPGGSLRLSCAASGFTFSHSSMNWVRQAPGKGLEWVSYISRATGAVYYADSVKGRFTISRDNAKNSLYLQMNSLRDEDTAVYYCAREPVFDYWGQGTLVTVSS
VL: DIQMTQSPSAMSASVGDRVTITCRASQGISNYLAWFQQKPGKVPTRLIYAASSLQSGVPSRFSGSGSGTEFTLTISSLQPEDFATYYCLQWSSYPRTFGQGTKVEIKR
B2: Ab9 Fab (hexahistidine tagged IgG1 heavy chain truncated after CH1, Crystal Kappa light chain) (Fab, V domains shown)
VH: B1 VH
VL: DIQMTQSPSAMSASVGDRVTITCRASQGISNYLAWFQQKPGKVPTRLIYAASSLQSGVPSRFSGSGSGTEFTLTISSLQPEDFATYYCLQWSSYPRTFGQGTKVEIK
notes: Construct for co-crystallisation; also called Fab portion of Ab9; Ab9 variant
B3: anti-human IL-4Rα antibody Ab10 (antibody, human IgG4 S228P, kappa, F234A L235A, V domains shown)
VH: B1 VH with H31I, V58I, D73N
VL: B1 VL with W91H, S92N
B4: Ab1 Fab (Crystal Kappa design) (Fab, V domains shown)
VH: B1 VH with A23V
VL: B2 VL with G28D
notes: Construct for co-crystallisation; also called Fab of the Ab1; anti-human IL-4Rα Ab1 Fab
B5: anti-human IL-4Rα antibody Ab4 (antibody, human IgG4 S228P, kappa)
heavy: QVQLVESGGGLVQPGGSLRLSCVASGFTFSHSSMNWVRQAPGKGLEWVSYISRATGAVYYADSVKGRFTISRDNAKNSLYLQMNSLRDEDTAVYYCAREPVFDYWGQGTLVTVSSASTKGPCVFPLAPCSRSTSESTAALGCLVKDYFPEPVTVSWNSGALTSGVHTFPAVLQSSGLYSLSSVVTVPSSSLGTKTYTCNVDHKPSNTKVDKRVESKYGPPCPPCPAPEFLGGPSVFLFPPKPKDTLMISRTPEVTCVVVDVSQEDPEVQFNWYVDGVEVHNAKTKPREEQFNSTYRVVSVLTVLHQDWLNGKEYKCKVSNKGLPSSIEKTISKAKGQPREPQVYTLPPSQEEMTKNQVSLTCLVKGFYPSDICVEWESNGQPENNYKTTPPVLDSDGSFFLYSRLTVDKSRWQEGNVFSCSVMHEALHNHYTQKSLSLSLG
light: DIQMTQSPSAMSASVGDRVTITCRASQDISNYLAWFQQKPGKVPTRLIYAASSLQSGVPSRFSGSGSGTEFTLTISSLQPEDFATYYCLQWSSYPRTFGQGTKVEIKRTVAAPSVFIFPPSDEQLKSGTASVVCLLNNFYPREAKVQWKVDNALQSGNSQESVTEQDSKDSTYSLSSTLTLSKADYEKHKVYACEVTHQGLSSPVTKSFNRGEC
B6: effector null anti-human IL-4Rα antibody Ab8 (antibody, human IgG1, kappa, L234A L235A)
heavy: QVQLVESGGGLVQPGGSLRLSCVASGFTFSHSSMNWVRQAPGKGLEWVSYISRATGAVYYADSVKGRFTISRDNAKNSLYLQMNSLRDEDTAVYYCAREPVFDYWGQGTLVTVSSASTKGPCVFPLAPSSKSTSGGTAALGCLVKDYFPEPVTVSWNSGALTSGVHTFPAVLQSSGLYSLSSVVTVPSSSLGTQTYICNVNHKPSNTKVDKRVEPKSCDKTHTCPPCPAPEAAGGPSVFLFPPKPKDTLMISRTPEVTCVVVDVSHEDPEVKFNWYVDGVEVHNAKTKPREEQYNSTYRVVSVLTVLHQDWLNGKEYKCKVSNKALAAPIEKTISKAKGQPREPQVYTLPPSREEMTKNQVSLTCLVKGFYPSDICVEWESNGQPENNYKTTPPVLDSDGSFFLYSKLTVDKSRWQQGNVFSCSVMHEALHNHYTQKSLSLSPGK
light: B5 light
notes: Effector null backbone

Legend:
[1] = molecular target: T1, human IL-4Rα on cells (human PBMC B …); assay: cell-based or functional assay
[2] = molecular target: T4, hexahistidine tagged human IL-4Rα ECD containing a C182L mutation (human, UniProt P24394 26-232); assay: X-ray co-crystal structure
T4 construct: Stated for the Ab9 Fab crystal; also called IL-4Rα ECD (crystallisation construct); not shown: hexahistidine tag

[3] = molecular target: T2, hexahistidine-tagged cynomolgus monkey …; assay: competition MSD ELISA (solution equilibrium, 37 °C), apparent KD, single experiment
Experimental: (§1) Example 3a. […] A 96-well multi-array plate (Meso Scale Diagnostics, Cat. #L15XA-3) was coated at 4° C. overnight with 0.5 μg/mL hexahistidine-tagged human or cynomolgus monkey IL-4Rα ECD in phosphate buffered saline (PBS). Following coating, plates were washed 10 times with 200 μL PBST (PBS with 0.05% Tween® 20) and blocked with 300 μL/well of PBS casein blocking buffer (Pierce, Cat. #37528) at 37° C. for 1 hour. Plates were then washed 10 times as above, and 50 μL of the preincubated antibody:IL-4Rα dilution series was transferred to the wells and incubated at 37° C. with 300 rpm shaking for […]. Plates were washed 10 times with PBST, 50 μL of 1 μg/mL anti-human antibody sulfo-tag 20 (Meso Scale Diagnostics, Cat. #R32AJ-1) was added to the plates for the assay of Table 7a, and anti-Human NHP Kappa Light chain SULFO-TAG 20 (Meso Scale Diagnostics, Cat #D20TF-6) was added to the plates for the assay of Table 7b, and plates were incubated at 37° C. with 300 rpm shaking for 30 minutes. Plates were washed 10 times with PBST, 150 μL/well of 1× Read Buffer T was added to the wells and analyzed on a SECTOR® Imager 6000 (Meso Scale Diagnostics) 15 min after buffer addition. The apparent KD is determined by fitting a sigmoidal curve to the electrochemiluminescence (ECL) response vs. log (soluble IL-4Rα concentration) using GraphPad Prism 9. Data is graphed with normalized ECL values.

[4] = molecular target: T3, hexahistidine-tagged human IL-4Rα …; assay: as above
Experimental: as §1

[5] = molecular target: T1, human IL-4Rα on cells (human PBMC B …); assay: flow cytometry on human PBMCs, B cells, Alexa Fluor 647 labelled antibody
Experimental: Example 3b. Binding to B cells and T cells: Binding of the exemplified anti-human IL-4Rα antibodies to B cells and T cells was tested in a Fluorescence Activated Cell Sorting (FACS) assay. […] Freshly isolated cells PBMCs were resuspended at 2×10⁶ cells/mL and allowed to rest for 15 minutes at room temperature, then plated at 100 μL/well into a round bottom 96-well plate (COSTAR®) and washed with FACS buffer (PBS containing 2% fetal bovine serum from Corning®). Exemplified anti-human IL-4Rα antibodies and the respective control IgG antibodies conjugated to Alexa Fluor® 647 according to manufacturer's protocol (Thermo Fisher Scientific) were added to the wells at 66.67 nM and diluted 4-fold in duplicate. Equivalent volume of 2× antibody cocktail containing: Human TruStain FcX™. FITC anti-human CD3 Antibody, Alexa Fluor® 700 anti-human CD4 Antibody (all from Biolegend®) and CD20 Monoclonal Antibody (2H7), PerCP-Cyanine5.5 (Thermo Fisher Scientific) was then added to the wells. Cells were incubated at 4° C. for 30 minutes, washed twice with FACS buffer and resuspended in a final volume of 100 μL FACS buffer. Viability dye, Sytox™ blue (Thermo Fisher Scientific), was added and the samples were analyzed via a flow cytometer (LSRFortessa™ X-20; BD BIOSCIENCES). Data analysis was performed using FlowJo software and statistical analysis was performed using GraphPad Prism 9. […]

| Binder | IL-4 IC50 (nM): inhibition of IL-4 induced SEAP activity in HEK-Blue IL-4R and IL-13R expressing cells [1] | IL-13 IC50 (nM): inhibition of IL-13 induced SEAP activity in HEK-Blue IL-4R and IL-13R expressing cells [1] | binding result [2] | also measured |
| --- | --- | --- | --- | --- |
| B1 | 0.03 nM | 0.24 nM | – | – |
| B2 | – | – | binds | – |
| B3 | 3.45 nM | > 35 nM | – | – |
| B4 | – | – | binds | – |
| B5 | – | – | – | Kd [3]: 31.5 pM; Kd [4]: 24.6 pM |
| B6 | – | – | – | EC50 [5]: 1070 pM |
